Non-standard residues stand in square brackets, D forms with d. No end group written: not given here. Hmb = valic acid residue (β-branched hydroxycarboxylic acid); Lac = C[C@H](O)C(=O)O
Test: Observation of temperature responsiveness by apparent absorbance (turbidity at 350 nm) of aqueous polymer solutions
Format: physicochemical
Details: for aggregation temperature / temperature responsiveness (gelation/aggregation by heating, liquefaction by cooling): reversibility: aqueous solution 10 mg/mL; for aggregation temperature: rate 1° C./5 minutes, 350 nm (FIG. 9); for temperature responsiveness (gelation/aggregation by heating, liquefaction by cooling): reversibility: temperature-increase and -decrease rate 1° C./5 minutes between 20° C. and 70° C., 350 nm
Method: (§1) FIG. 5 illustrates a graph obtained by the following procedure: an aqueous solution of poly(Gly-Ile-Gly-Lac-Pro) (SEQ ID NO: 7) (10 mg/mL) which is one embodiment of the present invention was put in a 1-mm-thick quartz cell for absorption spectra; the temperature was increased at a rate of 1° C./5 minutes between 20° C. and 70° C. and then decreased; transmittance (%) was measured with respect to a light of 350 nm at each temperature in a 1° C. interval; and a turbidity (%) obtained by subtracting the transmittance (%) from 100 was plotted.
as §1, with “FIG. 6” for “FIG. 5”, “of poly(Ala-Ile-Gly-Lac-Pro)” for “of poly(Gly-Ile-Gly-Lac-Pro)”, “NO: 8)” for “NO: 7)”
as §1, with “FIG. 9” for “FIG. 5”, “of poly(Gly-Val-Gly-Lac-Pro)” for “of poly(Gly-Ile-Gly-Lac-Pro)”, “NO: 9)” for “NO: 7)”, “plotted. In addition, as a comparative example, a plot of an aqueous solution (10 mg/mL) of poly(Gly-Val-Gly-Hmb-Pro) was shown.” for “plotted.”
as §1, with “FIG. 10” for “FIG. 5”, “of poly(Gly-Val-Gly-Lac-Pro)” for “of poly(Gly-Ile-Gly-Lac-Pro)”, “NO: 9)” for “NO: 7) (10 mg/mL)”, “invention with different concentrations (10, 20, 30, and 40 mg/mL)” for “invention”
as §1, with “FIG. 11” for “FIG. 5”, “of poly(Gly-Val-Gly-Lac-Pro)” for “of poly(Gly-Ile-Gly-Lac-Pro)”, “NO: 9) (40” for “NO: 7) (10”
The change in temperature responsiveness of each polymer obtained in Examples 2 and 4 due to heating an aqueous solution of the polymer was observed by apparent absorbance. The wavelength for observation was 350 nm. The wavelength corresponds to phenomenon of light scattering, i.e. white turbidity, by visual observation. Here, spectrum of poly(Gly-Ile-Gly-Lac-Pro (SEQ ID NO: 7)) and poly(Ala-Ile-Gly-Lac-Pro) (SEQ ID NO: 8) are shown in FIG. 5 and FIG. 6, respectively. The ordinate axes each represent turbidity converted from the transmittance. From the figure, the temperature responsiveness rate can be compared. […] In addition, in comparison between the observation by visual observation and the measured turbidity, the polymer underwent aggregation adequately even when the turbidity exceeds about 10 to 20%. […] The solution was actually returned to a uniform solution finally by left standing at 4° C. for 1 to 2 days. The extremely slow responsiveness (return to a uniform solution) at a low temperature is a novel property that has not happened before. […]

poly(Gly-Val-Gly-Lac-Pro) (GVG[Lac]P; also: polymerized repeat unit)
aggregation temperature: ≥ 70 °C | reversibility of phase transition phenomenon (aqueous solution 40 mg/mL, 1° C./5 minutes, 20-70° C. (FIG. 11)): reversible | aggregation temperature at increased concentration (aqueous solution, concentration increased in the range 10 to 40 mg/mL (FIG. 10)): ≤ 70 °C | concentration dependence of aggregation temperature (range of 10 to 40 mg/mL (FIG. 10)): decrease with the increase in the concentration

poly(Gly-Val-Gly-Hmb-Pro) (GVG[Hmb]P; also: polymerized repeat unit) [comparative depsipeptide polymer, Hmb=2-hydroxy-3-methylbutanoic acid (valic acid residue), reference compound]
aggregation temperature: 20-30 °C

poly(Ala-Ile-Gly-Lac-Pro) (AIG[Lac]P; numbers in words are those of the source; also: polymerized repeat, ~10 units) [depsipeptide polymer, polymerization degree about 10 (molecular weight about 4,500)]
time left standing until aggregated solution returned to a uniform solution (aggregation state at high temperature transferred to low temperature, left standing at 4° C.): 1 to 2 days | temperature responsiveness (gelation/aggregation by heating, liquefaction by cooling): reversibility: irreversible temperature responsiveness for several hours even when cooled

poly(Gly-Ile-Gly-Lac-Pro) (GIG[Lac]P; numbers in words are those of the source; also: polymerized repeat, ~3 units) [depsipeptide polymer, polymerization degree about 3 (molecular weight about 1,200)]
temperature responsiveness (gelation/aggregation by heating, liquefaction by cooling): reversibility: reversible temperature responsiveness

From patent US8153759B2, “Depsipeptide containing lactic acid residue” (National University Corporation Gunma University, priority 2006, dated 2012)
